According to patent publication US20030186281A1, “Modified tetracycline repressor protein compositions and methods of use” (priority 2001, published 2003):

System: tet operator sequence
Assay: β-galactosidase activity of a tetracycline-regulated promoter in transformed E. coli with revTetR, in the presence and absence of anhydrotetracycline (atc)
Format: cell-based, Escherichia coli
Conditions: for β-Galactosidase Activity, Cultured Without ATC: RevTetR isolate cultured in the absence of anhydrotetracycline (ATC); for β-Galactosidase Activity, Cultured With ATC: RevTetR isolate cultured in the presence of anhydrotetracycline (ATC)
Summary of the method: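 TetR(BD) chimera mutants (TetR(B) residues 1–50, TetR(D) 51–208) expressed in E. coli regulating a tet operator-controlled lacZ. β-Galactosidase measured in Miller units at 28 °C and 37 °C with and without anhydrotetracycline; reported as percent of maximal expression without Tet repressor.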

B1: TetRrev28/31: revTetR(BD) A13A V20G G21R I22N G24G (protein)
chain: MSRLDKSKVINSALELLNEGRNEGLTTRKLAQKLGVEQPTLYWHVKNKRALLDALAVEILARHHDYSLPAAGESWQSFLRNNAMSFRRALLRYRDGAKVHLGTRPDEKQYDTVETQLRFMTENGFSLRDGLYAISAVSHFTLGAVLEQQEHTAALTDRPAAPDENLPPLLREALQIMDSDDGEQAFLHGLESLIRGFEVQLTALLQIV
modifications: Modified tetracycline repressor
notes: revTetR(BD) A13A V20G G21R I22N G24G
B1 was tested, and the “β-Galactosidase Activity, Cultured Without ATC” value was 99.8749 and the “β-Galactosidase Activity, Cultured With ATC” value was 1.1121.

B2: TetRrev28/46: revTetR(BD) A13A V20G G21R I22N G24G (protein)
chain: MSRLDKSKVINSALELLNEGRNEGLTTRKLAQKLGVEQPTLYWHVKNKRALLDALAVEILARHHDYSLPAAGESWQSFLRNNAMSFRRALLRYRDGAKVHLGTRPDEKQYDTVETQLRFMTENGFSLRDGLYAISAVSHFTLGAVLEQQEHTAALTDRPAAPDENLPPLLREALQIMDSDDGEQAFLHGLESLIRGFEVQLTALLQIV
modifications: Modified tetracycline repressor
notes: as for B1
With B2 the “β-Galactosidase Activity, Cultured Without ATC” value was 95.9627 and the “β-Galactosidase Activity, Cultured With ATC” value was 1.1482.

B3: TetRrev29/24: revTetR(BD) E15V L17F N18Y I22M E23K (protein)
chain: MSRLDKSKVINSALVLFYEVGMKGLTTRKLAQKLGVEQPTLYWHVKNKRALLDALAVEILARHHDYSLPAAGESWQSFLRNNAMSFRRALLRYRDGAKVHLGTRPDEKQYDTVETQLRFMTENGFSLRDGLYAISAVSHFTLGAVLEQQEHTAALTDRPAAPDENLPPLLREALQIMDSDDGEQAFLHGLESLIRGFEVQLTALLQIV
modifications: Modified tetracycline repressor
notes: revTetR(BD) E15V L17F N18Y I22M E23K
For B3, the “β-Galactosidase Activity, Cultured Without ATC” value was 85.5708 and the “β-Galactosidase Activity, Cultured With ATC” value was 7.9819.

B4: TetRrev28/49: revTetR(BD) N18Y V20D I22T (protein)
chain: MSRLDKSKVINSALELLYDVGTEGLTTRKLAQKLGVEQPTLYWHVKNKRALLDALAVEILARHHDYSLPAAGESWQSFLRNNAMSFRRALLRYRDGAKVHLGTRPDEKQYDTVETQLRFMTENGFSLRDGLYAISAVSHFTLGAVLEQQEHTAALTDRPAAPDENLPPLLREALQIMDSDDGEQAFLHGLESLIRGFEVQLTALLQIV
modifications: Modified tetracycline repressor
notes: revTetR(BD) N18Y V20D I22T
B4 was tested, and the “β-Galactosidase Activity, Cultured Without ATC” value was 62.5137 and the “β-Galactosidase Activity, Cultured With ATC” value was 8.2716.

B5: TetRrev29/9: revTetR(BD) L17V N18Y G21G I22T (protein)
chain: MSRLDKSKVINSALELVYEVGTEGLTTRKLAQKLGVEQPTLYWHVKNKRALLDALAVEILARHHDYSLPAAGESWQSFLRNNAMSFRRALLRYRDGAKVHLGTRPDEKQYDTVETQLRFMTENGFSLRDGLYAISAVSHFTLGAVLEQQEHTAALTDRPAAPDENLPPLLREALQIMDSDDGEQAFLHGLESLIRGFEVQLTALLQIV
modifications: Modified tetracycline repressor
notes: revTetR(BD) L17V N18Y G21G I22T
For B5, the “β-Galactosidase Activity, Cultured Without ATC” value was 74.4357 and the “β-Galactosidase Activity, Cultured With ATC” value was 11.772.

B6: TetRrev28/48: revTetR(BD) N18Y V20D I22T W43S (protein)
chain: MSRLDKSKVINSALELLYEDGTEGLTTRKLAQKLGVEQPTLYSHVKNKRALLDALAVEILARHHDYSLPAAGESWQSFLRNNAMSFRRALLRYRDGAKVHLGTRPDEKQYDTVETQLRFMTENGFSLRDGLYAISAVSHFTLGAVLEQQEHTAALTDRPAAPDENLPPLLREALQIMDSDDGEQAFLHGLESLIRGFEVQLTALLQIV
modifications: Modified tetracycline repressor
notes: revTetR(BD) N18Y V20D I22T W43S
In the case of B6, the “β-Galactosidase Activity, Cultured Without ATC” value is reported as 99.3107 and the “β-Galactosidase Activity, Cultured With ATC” value is reported as 1.1587.

B7: TetRrev28/40: revTetR(BD) L14S N18Y I22F L25L (protein)
chain: MSRLDKSKVINSASELLYEVGFEGLTTRKLAQKLGVEQPTLYWHVKNKRALLDALAVEILARHHDYSLPAAGESWQSFLRNNAMSFRRALLRYRDGAKVHLGTRPDEKQYDTVETQLRFMTENGFSLRDGLYAISAVSHFTLGAVLEQQEHTAALTDRPAAPDENLPPLLREALQIMDSDDGEQAFLHGLESLIRGFEVQLTALLQIV
modifications: Modified tetracycline repressor
notes: revTetR(BD) L14S N18Y I22F L25L
B7 was tested, and the “β-Galactosidase Activity, Cultured Without ATC” value was 91 .691 and the “β-Galactosidase Activity, Cultured With ATC” value was 3.4834.

B8: TetRrev29/17: revTetR(BD) L17S E23D (protein)
chain: MSRLDKSKVINSALELSNEVGIDGLTTRKLAQKLGVEQPTLYWHVKNKRALLDALAVEILARHHDYSLPAAGESWQSFLRNNAMSFRRALLRYRDGAKVHLGTRPDEKQYDTVETQLRFMTENGFSLRDGLYAISAVSHFTLGAVLEQQEHTAALTDRPAAPDENLPPLLREALQIMDSDDGEQAFLHGLESLIRGFEVQLTALLQIV
modifications: Modified tetracycline repressor
notes: revTetR(BD) L17S E23D
B8 was tested, and the “β-Galactosidase Activity, Cultured Without ATC” value was 44.6409 and the “β-Galactosidase Activity, Cultured With ATC” value was 1.7738.

B9: TetRrev29/27: revTetR(BD) L14E V20G (protein)
chain: MSRLDKSKVINSAEELLNEGGIEGLTTRKLAQKLGVEQPTLYWHVKNKRALLDALAVEILARHHDYSLPAAGESWQSFLRNNAMSFRRALLRYRDGAKVHLGTRPDEKQYDTVETQLRFMTENGFSLRDGLYAISAVSHFTLGAVLEQQEHTAALTDRPAAPDENLPPLLREALQIMDSDDGEQAFLHGLESLIRGFEVQLTALLQIV
modifications: Modified tetracycline repressor
notes: revTetR(BD) L14E V20G
For B9, the “β-Galactosidase Activity, Cultured Without ATC” value was 82.7579 and the “β-Galactosidase Activity, Cultured With ATC” value was 9.453.

B10: TetRrev28/36: revTetR(BD) N18I E19G V20G E23V (protein)
chain: MSRLDKSKVINSALELLIGGGIVGLTTRKLAQKLGVEQPTLYWHVKNKRALLDALAVEILARHHDYSLPAAGESWQSFLRNNAMSFRRALLRYRDGAKVHLGTRPDEKQYDTVETQLRFMTENGFSLRDGLYAISAVSHFTLGAVLEQQEHTAALTDRPAAPDENLPPLLREALQIMDSDDGEQAFLHGLESLIRGFEVQLTALLQIV
modifications: Modified tetracycline repressor
notes: revTetR(BD) N18I E19G V20G E23V
For B10, the “β-Galactosidase Activity, Cultured Without ATC” value was 65.5335 and the “β-Galactosidase Activity, Cultured With ATC” value was 1.0579.

B11: TetRrev28/41: revTetR(BD) L17L N18D V20R I22N (protein)
chain: MSRLDKSKVINSALELLDERGNEGLTTRKLAQKLGVEQPTLYWHVKNKRALLDALAVEILARHHDYSLPAAGESWQSFLRNNAMSFRRALLRYRDGAKVHLGTRPDEKQYDTVETQLRFMTENGFSLRDGLYAISAVSHFTLGAVLEQQEHTAALTDRPAAPDENLPPLLREALQIMDSDDGEQAFLHGLESLIRGFEVQLTALLQIV
modifications: Modified tetracycline repressor
notes: revTetR(BD) L17L N18D V20R I22N
B11 was tested, and the “β-Galactosidase Activity, Cultured Without ATC” value was 15.4643 and the “β-Galactosidase Activity, Cultured With ATC” value was 5.6333.

B12: TetRrev29/25: revTetR(BD) G21- I22- E23- G24S (protein)
chain: MSRLDKSKVINSALELLNEVSLTTRKLAQKLGVEQPTLYWHVKNKRALLDALAVEILARHHDYSLPAAGESWQSFLRNNAMSFRRALLRYRDGAKVHLGTRPDEKQYDTVETQLRFMTENGFSLRDGLYAISAVSHFTLGAVLEQQEHTAALTDRPAAPDENLPPLLREALQIMDSDDGEQAFLHGLESLIRGFEVQLTALLQIV
modifications: Modified tetracycline repressor
notes: revTetR(BD) G21- I22- E23- G24S
With B12 the “β-Galactosidase Activity, Cultured Without ATC” value was 92.9327 and the “β-Galactosidase Activity, Cultured With ATC” value was 3.112.
